Assay results from US5770702, “Fibronectin binding protein as well as its preparation” (dated 1998).

Molecular target: Human fibronectin (intact) (human, UniProt P02751-8, 125I-labelled in the cell binding assays; coupled to Sepharose in the affinity chromatography)
Test: inhibition of labelled fibronectin binding to S. aureus cells

B1: 165 kD fibronectin binding protein (FNBP) isolated from E. coli pFR001 (receptor)
chain: ASEQKTTTVEENGNSATDNKTSETQTTATNVNHIEETQSYNATVTEQPSNATQVTTEEAPKAVQAPQTAQPANIETVKEEVVKEEAKPQVKETTQSQDNSGDQRQVDLTPKKATQNQVAETQVEVAQPRTASESKPRVTRSADVAEAKEASNAKVETGTDVTSKVTVEIGSIEGHNNTNKVEPHAGQRAVLKYKLKFENGLHQGDYFDFTLSNNVNTHGVSTARKVPEIKNGSVVMATGEVLEGGKIRYTFTNDIEDKVDVTAELEINLFIDPKTVQTNGNQTITSTLNEEQTSKELDVKYKDGIGNYYANLNGSIETFNKANNRFSHVAFIKPNNGKTTSVTVTGTLMKGSNQNGNQPKVRIFEYLGNNEDIAKSVYANTTDTSKFKEVTSNMSGNLNLQNNGSYSLNIENLDKTYVVHYDGEYLNGTDEVDFRTQMVGHPEQLYKYYYDRGYTLTWDNGLVLYSNKANGNEKNGPIIQNNKFEYKEDTIKETLTGQYDKNLVTTVEEEYDSSTLDIDYHTAIDGGGGYVDGYIETIEETDSSAIDIDYHTAVDSEAGHVGGYTESSEESNPIDFEESTHENSKHHADVVEYEEDTNPGGGQVTTESNLVEFDEESTKGIVTGAVSDHTTVEDTKEYTTESNLIELVDELPEEHGQAQGPVEEITKNNHHISHSGLGTENGHGNYDVIEEIEENSHVDIKSELGYEGGQNSGNQSFEEDTEEDKPKYEQGGNIVDIDFDSVPQIHGQNKGNQSFEEDTEKDKPKYEHGGNIIDIDFDSVPHIHGFNKHTEIIEEDTNKDKPSYQFGGHNSVDFEEDTLPKVSGQNEGQQTIEEDTTPPIVPPTPPTPEVPSEPETPTPPTPEVPSEPETPTPPTPEVPSEPETPTPPTPEVPAEPGKPVPPAKEEPKKPSKPVEQGKVVTPVIEINEKVKAVAPTKKPQSKKSELPETGGEESTNKGMLFGGLFSILGLALLRRNKKNHKA
For B1, the “fold more active than the 87 kD protein on a molar basis” value was 30 times.
